Measured values: article PMC4678846

Substrate: CC(C)(C)OC(=O)NCCCC[C@H](N)C(=O)O
Assay: purified protein
Settings: wild-type tRNA^Pyl, 10 mM ATP, 10 mM MgCl2, pH 7.2, 37 °C, apparent, amino acid not given, BocK inferred

B1: MbPylRS (Methanosarcina barkeri str. Fusaro) (protein)
chain: MDKKPLDVLISATGLWMSRTGTLHKIKHYEVSRSKIYIEMACGDHLVVNNSRSCRTARAFRHHKYRKTCKRCRVSDEDINNFLTRSTEGKTSVKVKVVSAPKVKKAMPKSVSRAPKPLENPVSAKASTDTSRSVPSPAKSTPNSPVPTSAPAPSLTRSQLDRVEALLSPEDKISLNIAKPFRELESELVTRRKNDFQRLYTNDREDYLGKLERDITKFFVDRDFLEIKSPILIPAEYVERMGINNDTELSKQIFRVDKNLCLRPMLAPTLYNYLRKLDRILPDPIKIFEVGPCYRKESDGKEHLEEFTMVNFCQMGSGCTRENLESLIKEFLDYLEIDFEIVGDSCMVYGDTLDIMHGDLELSSAVVGPVPLDREWGIDKPWIGAGFGLERLLKVMHGFKNIKRASRSESYYNGISTNL
Km: 1030 ± 50 µM
